Laboratory results published in patent publication US20050153894A1, “p21 peptides” (Cyclacel Limited, priority 1999, published 2005).
Values belong to the substance of their own block, whether it stands above or below them. Square brackets hold non-standard residues; d marks the D form. Ends that are not written are not given here. Phe(3-F) = N[C@@H](Cc1cccc(F)c1)C(=O)O; 1Nal = N[C@@H](Cc1cccc2ccccc12)C(=O)O; 2Nal = N[C@@H](Cc1ccc2ccccc2c1)C(=O)O; Cha = N[C@@H](CC1CCCCC1)C(=O)O; Nle = CCCC[C@H](N)C(=O)O; Nva = CCC[C@H](N)C(=O)O; dPse = not defined here

What was measured:
CDK2/cyclin A = CDK2/cyclin A (Homo sapiens, UniProt P20248); test: CDK2/cyclin A kinase assay, substrate pRb(773-928); assay type: biochemical; conditions: pRb substrate, [ATP] = 100 μM
Excerpt: Reactions were stopped on ice, followed by filtration through p81 filterplates (Whatman Polyfiltronics, Kent, UK).

Cyclin A = Cyclin A (Homo sapiens, UniProt P20248); test: Cyclin A binding assay, immobilised biotinyl-Ahx-[…]NH2
Protocol: This was added to each well (100 μL). The plate was incubated for 1 h at room temperature with constant shaking. The plate was washed once quickly with TBS/BSA buffer (200 μL), followed by three more washes with TBS/BSA buffer (200 μL) for 5 min each. Serial dilutions of test peptides were prepared in a new plate (50 μL in each well). Cyclin A was diluted to 5 μg/50 μL with TBS/BSA buffer and this was then added to each well (50 μL). The solutions were mixed thoroughly with a pipette (5-6 times), before being incubated for 30 min at room temperature. This reaction mixture was then transferred to the biotinylated peptide: streptavidin-coated plate and incubated for 1 h at room temperature with constant shaking. The plate was washed once quickly with TBS/BSA buffer (200 μL), followed by three more washes with TBS/BSA buffer (200 μL) for 5 min each. The cyclin A antibody (Santa Cruz polyclonal) solution was diluted 1:200 with TBS/BSA buffer and this was then added to each well of the plate (100 μL. The plate was incubated for 1 h at room temperature with constant shaking. The plate was washed once quickly with TBS/BSA buffer (200 μl), followed by three more washes with TBS/BSA buffer (200 μL) for 5 min each. The anti-rabbit secondary antibody (goat anti-rabbit IgG peroxidase conjugate) was diluted 1:10,000 with TBS/BSA and this was then added to each well of the plate (100 μL). The plate was incubated for 1 h at room temperature with constant shaking. The plate was washed once quickly with TBS/BSA buffer (200 μL), followed by three more washes with TBS/BSA buffer (200 μL) for 5 min each. To each well was added the TMB-ELISA reagent (Pierce 1-Step™ Turbo TMB-ELISA; 100 μL) and the plate incubated for 1 min with constant shaking. The reaction was then quenched by the addition of 2 M aqueous H2SO4 (100 μL, each well). The UV absorbance of the each solution was measured spectrophotometrically at 450 nm. IC50 values were calculated from dose-response curves.

[1] = Phe159 substitutions, relative to H-His-Ala-Lys-Arg-Arg-Leu-Ile-Phe-NH2 (=1)
[2] = Ile158 substitutions, relative to H-His-Ala-Lys-Arg-Arg-Leu-Ile-Phe-NH2 (=1)
[3] = relative to H-His-Ala-Lys-Arg-Arg-Leu-Ile-Phe-NH2 (SEQ ID No. 36) = 1, CDK2/cyclin A kinase assay
[4] = relative to SEQ ID No. 36 = 1, competitive cyclin A binding, immobilised biotinyl-Ahx-His-Ala-Lys-Arg-Arg-Leu-Ile-Phe-NH2
[5] = Lys154 substitutions, relative to H-His-Ala-Lys-Arg-Arg-Leu-Ile-Phe-NH2 (=1)
[6] = Leu157 substitutions, relative to H-His-Ala-Lys-Arg-Arg-Leu-Ile-Phe-NH2 (=1)
[7] = Arg156 substitutions, relative to H-His-Ala-Lys-Arg-Arg-Leu-Ile-Phe-NH2 (=1)

Chain of Cyclin A (P20248 whole entry): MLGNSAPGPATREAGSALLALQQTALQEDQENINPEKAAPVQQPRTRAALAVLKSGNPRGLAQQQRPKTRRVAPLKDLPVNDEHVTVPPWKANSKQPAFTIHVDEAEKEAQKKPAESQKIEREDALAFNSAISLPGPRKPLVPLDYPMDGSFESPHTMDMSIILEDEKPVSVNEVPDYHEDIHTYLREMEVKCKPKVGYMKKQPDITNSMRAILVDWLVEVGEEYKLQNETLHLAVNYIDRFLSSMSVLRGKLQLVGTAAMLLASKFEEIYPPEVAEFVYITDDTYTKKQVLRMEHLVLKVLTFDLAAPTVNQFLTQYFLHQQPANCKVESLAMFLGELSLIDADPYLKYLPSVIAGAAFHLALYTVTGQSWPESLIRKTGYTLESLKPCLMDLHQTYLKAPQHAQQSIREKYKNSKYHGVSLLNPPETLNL

Relative activity Kinase Inhibition (CDK2/cyclin A; [1]): <0.1
Relative activity Cyclin A Binding (Cyclin A; [1]): <0.1
Substance: H-His-Ala-Lys-Arg-Arg-Leu-Ile-Cha-NH2 (H-HAKRRLI[Cha]-NH2; SMILES CC[C@H](C)[C@H](NC(=O)[C@H](CC(C)C)NC(=O)[C@H](CCCNC(=N)N)NC(=O)[C@H](CCCNC(=N)N)NC(=O)[C@H](CCCCN)NC(=O)[C@H](C)NC(=O)[C@@H](N)Cc1c[nH]cn1)C(=O)N[C@@H](CC1CCCCC1)C(N)=O)

Relative activity Kinase Inhibition (CDK2/cyclin A; [1]): 0.3
Relative activity Cyclin A Binding (Cyclin A; [1]): <0.1
Substance: HAKRRLIL-NH2

Relative activity Kinase Inhibition (CDK2/cyclin A; [1]): 0.8
Relative activity Cyclin A Binding (Cyclin A; [1]): 0.8
Substance: H-His-Ala-Lys-Arg-Arg-Leu-Ile-mFPhe-NH2 (H-HAKRRLI[Phe(3-F)]-NH2; SMILES CC[C@H](C)[C@H](NC(=O)[C@H](CC(C)C)NC(=O)[C@H](CCCNC(=N)N)NC(=O)[C@H](CCCNC(=N)N)NC(=O)[C@H](CCCCN)NC(=O)[C@H](C)NC(=O)[C@@H](N)Cc1c[nH]cn1)C(=O)N[C@@H](Cc1cccc(F)c1)C(N)=O)

Relative activity Kinase Inhibition (CDK2/cyclin A; [2]): 0.4
Relative activity Cyclin A Binding (Cyclin A; [2]): 0.4
Substance: HAKRRLFF-NH2

Relative activity Kinase Inhibition (CDK2/cyclin A; [1]): 0.3
Relative activity Cyclin A Binding (Cyclin A; [1]): 0.2
Substance: HAKRRLIY-NH2

Relative activity Kinase Inhibition (CDK2/cyclin A; [3]): <0.1
Relative activity Cyclin A Binding (Cyclin A; [4]): 0.1
Substance: 111 (H-HAKRRLI[dPse]-OH; reading uncertain) [compound 111]

Relative activity Kinase Inhibition (CDK2/cyclin A; [2]): 0.5
Relative activity Cyclin A Binding (Cyclin A; [2]): 0.5
Substance: H-His-Ala-Lys-Arg-Arg-Leu-1Nap-Phe-NH2 (H-HAKRRL[1Nal]F-NH2; SMILES CC(C)C[C@H](NC(=O)[C@H](CCCNC(=N)N)NC(=O)[C@H](CCCNC(=N)N)NC(=O)[C@H](CCCCN)NC(=O)[C@H](C)NC(=O)[C@@H](N)Cc1c[nH]cn1)C(=O)N[C@@H](Cc1cccc2ccccc12)C(=O)N[C@@H](Cc1ccccc1)C(N)=O)

Relative activity Kinase Inhibition (CDK2/cyclin A; [5]): 0.1
Relative activity Cyclin A Binding (Cyclin A; [5]): 1.4
Substance: H-His-Ala-Leu-Arg-Arg-Leu-Ile Phe-NH2 (H-HALRRLIF-NH2)

Relative activity Kinase Inhibition (CDK2/cyclin A; [5]): <0.1
Relative activity Cyclin A Binding (Cyclin A; [5]): 0.5
Substance: H-His-Ala-Ala-Arg-Arg-Leu-Ile Phe-NH2 (H-HAARRLIF-NH2)

Relative activity Kinase Inhibition (CDK2/cyclin A; [3]): <0.1
Relative activity Cyclin A Binding (Cyclin A; [4]): <0.1
Substance: 113 (H-HSKRRLI[dPse]-OH; reading uncertain) [compound 113]

Relative activity Kinase Inhibition (CDK2/cyclin A; [6]): <0.1
Relative activity Cyclin A Binding (Cyclin A; [6]): <0.1
Substance: H-His-Ala-Lys-Arg-Arg-Nva-Ile Phe-NH2 (H-HAKRR[Nva]IF-NH2; SMILES CCC[C@H](NC(=O)[C@H](CCCNC(=N)N)NC(=O)[C@H](CCCNC(=N)N)NC(=O)[C@H](CCCCN)NC(=O)[C@H](C)NC(=O)[C@@H](N)Cc1c[nH]cn1)C(=O)N[C@H](C(=O)N[C@@H](Cc1ccccc1)C(N)=O)[C@@H](C)CC)

Relative activity Kinase Inhibition (CDK2/cyclin A; [1]): 0.3
Relative activity Cyclin A Binding (Cyclin A; [1]): 0.1
Substance: HAKRRLIW-NH2

Relative activity Kinase Inhibition (CDK2/cyclin A; [7]): <0.1
Relative activity Cyclin A Binding (Cyclin A; [7]): <0.1
Substance: H-His-Ala-Lys-Arg-Asn-Leu-Ile Phe-NH2 (H-HAKRNLIF-NH2)

Relative activity Kinase Inhibition (CDK2/cyclin A; [5]): 03
Relative activity Cyclin A Binding (Cyclin A; [5]): 0.2
Substance: H-His-Ala-Nle-Arg-Arg-Leu-Ile Phe-NH2 (H-HA[Nle]RRLIF-NH2; SMILES CCCC[C@H](NC(=O)[C@H](C)NC(=O)[C@@H](N)Cc1c[nH]cn1)C(=O)N[C@@H](CCCNC(=N)N)C(=O)N[C@@H](CCCNC(=N)N)C(=O)N[C@@H](CC(C)C)C(=O)N[C@H](C(=O)N[C@@H](Cc1ccccc1)C(N)=O)[C@@H](C)CC)

Relative activity Kinase Inhibition (CDK2/cyclin A; [1]): 1.2
Relative activity Cyclin A Binding (Cyclin A; [1]): 0.7
Substance: H-His-Ala-Lys-Arg-Arg-Leu-Ile-2Nap-NH2 (H-HAKRRLI[2Nal]-NH2; SMILES CC[C@H](C)[C@H](NC(=O)[C@H](CC(C)C)NC(=O)[C@H](CCCNC(=N)N)NC(=O)[C@H](CCCNC(=N)N)NC(=O)[C@H](CCCCN)NC(=O)[C@H](C)NC(=O)[C@@H](N)Cc1c[nH]cn1)C(=O)N[C@@H](Cc1ccc2ccccc2c1)C(N)=O)

Relative activity Kinase Inhibition (CDK2/cyclin A; [2]): 1.2
Relative activity Cyclin A Binding (Cyclin A; [2]): 0.6
Substance: HAKRRLLF-NH2
